Experimental data taken from publication PMC4347646 (The Journal of Cell Biology, 2015).

Target: T1, Rab13 Q67L (in the Rab13 biosensor) (human, UniProt P51153 1-203, Q67L)
T1 sequence: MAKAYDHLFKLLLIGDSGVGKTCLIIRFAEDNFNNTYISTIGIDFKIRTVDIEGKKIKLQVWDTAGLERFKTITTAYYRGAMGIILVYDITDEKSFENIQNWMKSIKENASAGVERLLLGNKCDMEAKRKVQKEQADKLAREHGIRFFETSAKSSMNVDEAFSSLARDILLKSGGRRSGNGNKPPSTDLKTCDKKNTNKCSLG
Test: FRET or BRET

- FRET/mCer ratio, higher than in the Rab13 T22N biosensor: 53%
B1: RBD of MICAL-L2 (in the Rab13 biosensor) (domain or fragment)
chain: not shown
